In patent WO2001077362A1:

Target: purified soluble human HM1.24 antigen (HA-tagged, from soluble human HM1.24 antigen-expressing CHO cells) (human)
Assay: sandwich ELISA with purified antigen at 5000-fold dilution (about 76.4 ng/mL) captured by anti-HA antibody; lowest measurable antibody concentration

- measurement limit: 500 pg/mL
Substance: reshaped human anti-HM1.24 antibody (humanized anti-HM1.24 antibody), light chain version a and heavy chain version s
